This is an account of results in patent US20240034757A1 (OXFORD UNIVERSITY INNOVATION, published 2024).

In one test the target is T1, CXCL4_HUMAN (human, UniProt P02776 32-101).
T1 sequence: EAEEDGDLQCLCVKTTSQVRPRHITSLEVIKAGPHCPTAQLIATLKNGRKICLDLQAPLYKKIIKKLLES
In words: BLI [Cont.) C].

The target of the next test is T2, CXCL3_HUMAN (human, UniProt P19876 35-107).
T2 sequence: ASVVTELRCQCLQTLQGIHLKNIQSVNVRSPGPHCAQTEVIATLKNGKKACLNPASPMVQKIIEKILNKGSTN
In words: BLI [Cont.) C].

In a further test the target is T3, CXCL9_HUMAN (human, UniProt Q07325 23-125).
T3 sequence: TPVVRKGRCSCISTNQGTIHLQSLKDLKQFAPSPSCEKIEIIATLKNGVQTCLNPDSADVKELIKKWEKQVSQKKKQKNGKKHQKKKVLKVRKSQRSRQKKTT
In words: BLI [Cont.) C].

The next test concerns the target T4, CCL3L1_HUMAN (human, UniProt P16619 24-93).
T4 sequence: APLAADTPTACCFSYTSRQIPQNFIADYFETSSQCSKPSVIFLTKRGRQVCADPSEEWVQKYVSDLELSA
In words: BLI.

For a further test, the target named is T5, CCL24_HUMAN (human, UniProt O00175 27-104).
T5 sequence: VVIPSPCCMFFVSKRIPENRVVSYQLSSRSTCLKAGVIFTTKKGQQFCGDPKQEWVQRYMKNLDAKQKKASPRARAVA
Briefly: BLI. For orientation: Biolayer interferometry detects binding as a change in optical thickness at a sensor tip.

Another test addresses T6, CCL23_HUMAN (human, UniProt P55773 22-120).
T6 sequence: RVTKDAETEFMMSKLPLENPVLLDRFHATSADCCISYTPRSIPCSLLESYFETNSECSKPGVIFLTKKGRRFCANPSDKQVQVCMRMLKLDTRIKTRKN
Briefly: BLI.

In the next test the target is T7, CCL4L1_HUMAN (human, UniProt Q8NHW4 24-92).
T7 sequence: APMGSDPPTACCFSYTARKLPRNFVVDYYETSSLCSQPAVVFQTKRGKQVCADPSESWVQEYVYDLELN
In words: BLI.

In the next test the target is T8, CCL16_HUMAN (human, UniProt O15467 24-120).
T8 sequence: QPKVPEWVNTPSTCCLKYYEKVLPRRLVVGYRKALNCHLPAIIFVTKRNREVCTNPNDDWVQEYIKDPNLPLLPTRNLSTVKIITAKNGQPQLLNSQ
In words: BLI.

A further test addresses T9, CCL8_HUMAN (human, UniProt P80075 24-99).
T9 sequence (looked up): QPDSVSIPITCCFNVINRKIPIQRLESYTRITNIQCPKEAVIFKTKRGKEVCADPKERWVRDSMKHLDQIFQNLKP
In words: BLI.

The target in the next test is T10, CCL17_HUMAN (human, UniProt Q92583 24-94).
T10 sequence: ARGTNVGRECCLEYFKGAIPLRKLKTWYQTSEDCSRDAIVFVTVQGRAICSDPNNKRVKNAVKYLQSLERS
Briefly: BLI.

Another test addresses CCL7_HUMAN (human, UniProt P80098 24-99). Briefly: BLI.
The next test deals with T11, CCL1_HUMAN (human, UniProt P22362 24-96).
T11 sequence: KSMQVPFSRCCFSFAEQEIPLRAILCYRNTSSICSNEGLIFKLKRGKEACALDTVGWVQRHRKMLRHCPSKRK
In words: BLI.

For another test, the target named is T12, CCL18_HUMAN (human, UniProt P55774 21-89).
T12 sequence: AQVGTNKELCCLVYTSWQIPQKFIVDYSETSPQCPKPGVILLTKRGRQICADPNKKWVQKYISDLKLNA
In words: BLI.

The target of another test is T13, CCL22_HUMAN (human, UniProt O00626 25-93).
T13 sequence: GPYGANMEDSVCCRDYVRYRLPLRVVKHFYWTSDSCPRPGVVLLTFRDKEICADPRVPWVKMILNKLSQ
Briefly: BLI.

In a further test the target is T14, CCL5_HUMAN (human, UniProt P13501 24-91).
T14 sequence: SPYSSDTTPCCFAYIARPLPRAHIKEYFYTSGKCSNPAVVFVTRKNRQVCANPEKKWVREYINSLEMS
In words: BLI.

The target in the next test is T15, CCL19_HUMAN (human, UniProt Q99731 22-98).
T15 sequence: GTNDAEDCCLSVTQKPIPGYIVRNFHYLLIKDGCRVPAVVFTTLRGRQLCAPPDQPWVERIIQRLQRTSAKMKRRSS
In words: BLI.

A further test has as its target T16, CCL21_HUMAN (human, UniProt O00585 24-134).
T16 sequence: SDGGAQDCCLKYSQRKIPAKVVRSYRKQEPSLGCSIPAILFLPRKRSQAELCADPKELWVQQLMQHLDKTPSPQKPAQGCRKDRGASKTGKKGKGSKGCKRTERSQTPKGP
In words: BLI.

The target in a further test is CCL13_HUMAN (human, UniProt Q99616 24-98). Briefly: BLI.
A further test addresses CCL11_HUMAN (human, UniProt P51671 24-97). In words: BLI.
The target of a further test is T17, CCL15_HUMAN (human, UniProt Q16663 22-113).
T17 sequence: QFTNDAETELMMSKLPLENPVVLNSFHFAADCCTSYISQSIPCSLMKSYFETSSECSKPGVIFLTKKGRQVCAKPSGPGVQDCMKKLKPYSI
Briefly: BLI.

A further test concerns the target CCL20_HUMAN (human, UniProt P78556 27-96). In words: BLI.
The target of a further test is T18, CCL4_HUMAN (human, UniProt P13236 24-92).
T18 sequence: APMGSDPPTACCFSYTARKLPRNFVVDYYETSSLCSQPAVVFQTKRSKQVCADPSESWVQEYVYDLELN
In words: BLI.
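Throughout, for Kd: biolayer interferometry binding readings, curves fitting with R² below 0.9 dropped, every experiment run at least three times.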

Chain of CCL11_HUMAN (P51671 24-97 limits assumed): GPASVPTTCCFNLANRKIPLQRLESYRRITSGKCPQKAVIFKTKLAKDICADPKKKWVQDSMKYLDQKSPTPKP
Chain of CCL13_HUMAN (Q99616 24-98 limits assumed): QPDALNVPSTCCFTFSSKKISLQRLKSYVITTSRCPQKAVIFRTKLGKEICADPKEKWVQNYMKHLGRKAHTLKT
Chain of CCL20_HUMAN (P78556 27-96 limits assumed): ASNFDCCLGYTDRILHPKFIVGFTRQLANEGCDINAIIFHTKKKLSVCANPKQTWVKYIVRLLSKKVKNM
Chain of CCL7_HUMAN (P80098 24-99 limits assumed): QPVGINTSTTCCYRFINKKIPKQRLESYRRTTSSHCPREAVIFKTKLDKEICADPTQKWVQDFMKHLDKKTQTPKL

B1: P1243:G4S:P1156 (designed binder)
chain: RNHTEDNSTEYYDYEEARCACPARHLNNTNGTVLKLLGCHYFCNGTLCTAPDGYPCYNLTAQQVRTLTTYPNTSCAVGVCMKGTCVKNGTMEQCFKTPGGGGSADDDNELFTVQYCGMNCTKDEGGTWTGCTGKKEGCKCYHESGKNYGLCLSTEYTDFSQYGNPSDSEIEAAKPKRSDTLSH
With B1, the binding result in the test with CXCL4_HUMAN, in the test with CXCL3_HUMAN, in the test with CXCL9_HUMAN, with CCL4L1_HUMAN, with CCL16_HUMAN and in the test with CCL1_HUMAN was “no binding (tested: 300 nM)” in each case. Besides, the binding result with CCL22_HUMAN and with CCL20_HUMAN was “no binding (tested: 300 nM)” each time. Also, the dissociation constant (Kd) (in general, the concentration at which binding is half-saturated) was found to be 4.06 nM with CCL3L1_HUMAN; 16.4 nM with CCL24_HUMAN; 0.632 nM in the test with CCL23_HUMAN; 381 nM with CCL8_HUMAN; 3.51 nM in the test with CCL17_HUMAN; 49 nM with CCL7_HUMAN. Besides, the Kd in the test with CCL18_HUMAN was 0.543 nM; in the test with CCL5_HUMAN it was 8.95 nM; in the test with CCL19_HUMAN, 2.92 nM; in the test with CCL21_HUMAN, 53.8 nM; with CCL13_HUMAN, 1.33 nM; in the test with CCL11_HUMAN, 19.7 nM. Besides, the results for the Kd in the test with CCL15_HUMAN and in the test with CCL4_HUMAN were 8.71 nM and 19.4 nM, respectively.
